Patent US20210214414A1 (Pfizer, published 2021)

Legend:
Human SLIT2-N [1] = target: T1, Human SLIT2-N (human, UniProt O94813 31-1121, limits assumed); experiment: summary of the Examples (FIGS. 11-13) against ROBO2-Fc 2.2
T1 construct: domain: SLIT2-N (N terminal fragment); Soluble analyte in SPR, d2-labelled in HTRF, overexpressed on HEK293 cells in flow cytometry; also called human SLIT2-N (N terminal fragment)
T1 sequence (looked up): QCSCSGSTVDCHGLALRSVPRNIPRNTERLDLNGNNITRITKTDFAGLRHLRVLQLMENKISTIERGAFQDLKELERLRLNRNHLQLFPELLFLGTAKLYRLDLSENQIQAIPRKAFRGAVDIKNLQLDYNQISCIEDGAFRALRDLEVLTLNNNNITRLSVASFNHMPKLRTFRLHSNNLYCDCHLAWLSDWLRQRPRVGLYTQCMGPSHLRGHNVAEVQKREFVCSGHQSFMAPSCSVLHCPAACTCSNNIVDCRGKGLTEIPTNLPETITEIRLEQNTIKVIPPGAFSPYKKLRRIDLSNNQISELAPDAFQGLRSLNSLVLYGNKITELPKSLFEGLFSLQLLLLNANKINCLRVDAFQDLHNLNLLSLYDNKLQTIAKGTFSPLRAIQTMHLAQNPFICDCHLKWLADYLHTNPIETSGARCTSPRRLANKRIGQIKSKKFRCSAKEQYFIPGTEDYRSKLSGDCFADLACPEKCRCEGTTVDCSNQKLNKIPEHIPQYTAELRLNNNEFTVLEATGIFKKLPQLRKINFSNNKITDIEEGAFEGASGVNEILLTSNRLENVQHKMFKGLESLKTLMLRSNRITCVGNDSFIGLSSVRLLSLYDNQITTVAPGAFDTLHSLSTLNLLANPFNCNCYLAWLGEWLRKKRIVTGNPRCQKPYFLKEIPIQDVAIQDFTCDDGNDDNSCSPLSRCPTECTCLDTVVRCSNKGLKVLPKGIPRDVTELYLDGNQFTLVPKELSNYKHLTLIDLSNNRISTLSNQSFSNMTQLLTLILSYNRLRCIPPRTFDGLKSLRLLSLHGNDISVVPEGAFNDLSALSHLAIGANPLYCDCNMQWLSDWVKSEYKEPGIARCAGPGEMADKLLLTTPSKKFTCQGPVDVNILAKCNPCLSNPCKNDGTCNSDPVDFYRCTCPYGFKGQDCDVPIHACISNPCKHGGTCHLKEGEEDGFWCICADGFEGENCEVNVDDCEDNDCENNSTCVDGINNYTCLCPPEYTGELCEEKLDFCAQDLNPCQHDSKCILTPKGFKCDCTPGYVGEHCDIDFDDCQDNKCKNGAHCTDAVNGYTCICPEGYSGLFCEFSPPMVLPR

Human SLIT2-N [2] = target: T1, Human SLIT2-N; experiment: flow cytometry, AF647-labelled ROBO2-Fc S17T/R73Y on HEK293 cells overexpressing human SLIT2-N (FIG. 11)
Description: After incubation, […] FACS buffer was added per well to wash the cells. After washing, cells were resuspended in buffer for data acquisition on a Fortessa Flow Cytometer.

Human SLIT2-N [3] = target: T1, Human SLIT2-N; experiment: HTRF competition: d2-labelled human SLIT2-N binding to ROBO2 on HEK293 cells (competitor: cell surface ROBO2) (FIG. 12)
Description: After incubation, fluorescence at 665 nm and 620 nm was measured on an Envision multilabel plate reader. The HTRF Ratio was calculated as follows: fluorescence at 665 nm/fluorescence at 620 nm×10,000.

fold increase of binding affinity to SLIT2 against SEQ ID NO: 1 (Human SLIT2-N [1]): ~10 fold | EC50 (Human SLIT2-N [2]): 2.5 nM | IC50 (Human SLIT2-N [3]): 1.4 nM
B1: ROBO2-Fc S17T/R73Y (Fc fusion)
chain: SRLRQEDFPPRIVEHPTDVIVSKGEPTTLNCKAEGRPTPTIEWYKDGERVETDKDDPRSHRMLLPSGSLFFLYIVHGRRSKPDEGSYVCVARNYLGEAVSRNASLEVALLRDDFRQNPTDVVVAAGEPAILECQPPRGHPEPTIYWKKDKVRIDDKEERISIRGGKLMISNTRKSDAGMYTCVGTNMVGERDSDPAELTVFERGGSGGSEPKSSDKTHTCPPCPAPEAAGAPSVFLFPPKPKDTLMISRTPEVTCVVVDVSHEDPEVKFNWYVDGVEVHNAKTKPREEQYNSTYRVVSVLTVLHQDWLNGKEYKCKVSNKALPAPIEKTISKAKGQPREPQVYTLPPSREEMTKNQVSLTCLVKGFYPSDIAVEWESNGQPENNYKTTPPVLDSDGSFFLYSKLTVDKSRWQQGNVFSCSVMHEALHNHYTQKSLSLSPGK
notes: Labelled with Alexa Fluor 647 in the flow cytometry assay; also called ROBO2-Fc 517T/R73Y; ROBO2-Fc S17T/R73Y-AF647
